Reference: paper PMC6336734

Molecular target: Recombinant PP35 gp156 tail spike protein (Dickeya bacteriophage PP35)
Test: SEC

Recombinant PP35 gp156 tail spike protein (natural protein)
stoichiometry N: 3
